In publication PMC11559096:

Key:
[1] = molecular target: MHV-2 S2 fragments made by trypsin after receptor binding (69 and 67 kDa) (mouse hepatitis virus type 2 (MHV-2)); assay: SDS-PAGE of samples heated in 1% SDS (dissociation temperature of the trimer); MHV-2 with receptor, then trypsin at 37°C, in the presence of the HR2-peptide; 5 mM Pefabloc SC and 1% SDS on ice, then 10 min at the indicated temperatures; western blot with MAb10G; trimer to monomers
[2] = molecular target: MHV-2 S2 fragments made by trypsin after receptor binding (69 and 67 kDa) (mouse hepatitis virus type 2 (MHV-2)); assay: SDS-PAGE of samples heated in 1% SDS (dissociation temperature of the trimer); post-fusion state (MHV-2 with receptor, then trypsin at 37°C), no HR2-peptide; 5 mM Pefabloc SC and 1% SDS on ice, then 10 min at the indicated temperatures; western blot with MAb10G; trimer to monomers
[3] = molecular target: MHV-2 spike (S) protein, uncleaved 180 kDa, on authentic virus (mouse hepatitis virus type 2 (MHV-2)); assay: SDS-PAGE of samples heated in 1% SDS (dissociation temperature of the trimer); receptor-binding state (MHV-2 with soluble receptor), with or without HR2-peptide; 5 mM Pefabloc SC and 1% SDS on ice, then 10 min at the indicated temperatures; western blot with MAb10G; trimer to monomers
[4] = molecular target: MHV-2 spike (S) protein, uncleaved 180 kDa, on authentic virus (mouse hepatitis virus type 2 (MHV-2)); assay: SDS-PAGE of samples heated in 1% SDS (dissociation temperature of the trimer); pre-fusion state (untreated MHV-2), with or without HR2-peptide; 5 mM Pefabloc SC and 1% SDS on ice, then 10 min at the indicated temperatures; western blot with MAb10G; trimer to monomers

| Substance | dissociation temperature of the trimer in 1% SDS [1] [°C] | dissociation temperature of the trimer in 1% SDS [2] [°C] | stoichiometry N [2] | dissociation temperature of the trimer in 1% SDS [3] [°C] | dissociation temperature of the trimer in 1% SDS [4] [°C] | stoichiometry N [4] |
| --- | --- | --- | --- | --- | --- | --- |
| MHV-2 S2 fragments made by trypsin after receptor binding (69 and 67 kDa) (domain or fragment) | 80 | 100 | 3 |  |  |  |
| MHV-2 spike (S) protein, uncleaved 180 kDa, on authentic virus (natural protein) |  |  |  | 65 | < 25 | 3 |
